Measured values: US20110053865A1 (published 2011)
Read-outs that look alike come from different tables or passages of the source. Values belong to the binder of their own block, whether it stands above or below them.

How the values were obtained:
124G4 [1] = assay: Biacore
124D11 [2] = assay: Biacore
124D4 [3] = assay: Biacore
124H5 [4] = assay: Biacore
124B5 [5] = assay: Biacore
124H2 [6] = assay: Biacore
124B6 = assay: Biacore; R&D hIL23
12A11 = assay: Biacore; R&D hIL23
12D11 = assay: Biacore; R&D hIL23
124E3 = assay: Biacore; R&D hIL23
12D2 = assay: Biacore; R&D hIL23
124C3 = assay: Biacore; R&D hIL23
124G2 = assay: Biacore; R&D hIL23
12F11 = assay: Biacore; R&D hIL23
124G4 [7] = assay: Biacore; R&D hIL23
124E5 = assay: Biacore; R&D hIL23
124D2 = assay: Biacore; R&D hIL23
12E11 = assay: Biacore; R&D hIL23
124F9 = assay: Biacore; R&D hIL23
4A11 = assay: Biacore; R&D hIL23
12H2 = assay: Biacore; R&D hIL23
4E7 = assay: Biacore; R&D hIL23
124F10 = assay: Biacore; R&D hIL23
4E11 = assay: Biacore; R&D hIL23
12A4 = assay: Biacore; R&D hIL23
124F7 = assay: Biacore; R&D hIL23
12G7 = assay: Biacore; R&D hIL23
124D11 [8] = assay: Biacore; R&D hIL23
12C10 = assay: Biacore; R&D hIL23
4D2 = assay: Biacore; R&D hIL23
124D4 [9] = assay: Biacore; R&D hIL23
124H1 = assay: Biacore; R&D hIL23
124C5 = assay: Biacore; R&D hIL23
4E3 = assay: Biacore; R&D hIL23
124H5 [10] = assay: Biacore; R&D hIL23
124B5 [11] = assay: Biacore; R&D hIL23
124H2 [12] = assay: Biacore; R&D hIL23
121C1 = assay: Biacore
80C10 [13] = assay: Biacore
3E1 = assay: Biacore
3A11 = assay: Biacore
3D4 = assay: Biacore
3G9 = assay: Biacore
3H5 = assay: Biacore
121C1 = 84D3 = assay: Biacore
80C10 [14] = assay: Biacore; remark: listed apart in the source
3A10 = assay: Biacore
3C7 = assay: Biacore
3A7 = assay: Biacore
1G8 = assay: Biacore
4F3 = assay: Biacore

- koff (124G4 [1]): 0.00329 s⁻¹
- koff (124D11 [2]): 0.00744 s⁻¹
- koff (124D4 [3]): 0.0029 s⁻¹
- koff (124H5 [4]): 0.00304 s⁻¹
- koff (124B5 [5]): 0.00105 s⁻¹
- koff (124H2 [6]): 0.00291 s⁻¹
B1: R&D mIL23 (ligand)
chain 1: VPRSSSPDWAQCQQLSRNLCMLAWNAHAPAGHMNLLREEEDEETKNNVPRIQCEDGCDPQGLKDNSQFCLQRIRQGLAFYKHLLDSDIFKGEPALLPDSPMEQLHTSLLGLSQLLQPEDHPRETQQMPSLSSSQQWQRPLLRSKILRSLQAFLAIAARVFAHGAATLTEPLVPTA
chain 2: MWELEKDVYVVEVDWTPDAPGETVNLTCDTPEEDDITWTSDQRHGVIGSGKTLTITVKEFLDAGQYTCHKGGETLSHSHLLLHKKENGIWSTEILKNFKNKTFLKCEAPNYSGRFTCSWLVQRNMDLKFNIKSSSSSPDSRAVTCGMASLSAEKVTLDQRDYEKYSVSCQEDVTCPTAEETLPIELALEARQQNKYENYSTSFFIRDIIKPDPPKNLQMKPLKNSQVEVSWEYPDSWSTPHSYFSLKFFVRIQRKKEKMKETEEGCNQKGAFLVEKTSTEVQCKGGNVCVQAQDRYYNSSCSKWACVPCRVRS

- koff (124B6): 0.000249 s⁻¹
- koff (12A11): 0.000134 s⁻¹
- koff (12D11): 0.000121 s⁻¹
- koff (124E3): 0.000261 s⁻¹
- koff (12D2): 0.000101 s⁻¹
- koff (124C3): 0.000123 s⁻¹
- koff (124G2): 6.55e-05 s⁻¹
- koff (12F11): 0.000235 s⁻¹
- koff (124G4 [7]): 0.000146 s⁻¹
- koff (124E5): 0.000187 s⁻¹
- koff (124D2): 9.08e-05 s⁻¹
- koff (12E11): 0.000237 s⁻¹
- koff (124F9): 0.00031 s⁻¹
- koff (4A11): 0.00032 s⁻¹
- koff (12H2): 0.000126 s⁻¹
- koff (4E7): 0.000101 s⁻¹
- koff (124F10): 0.000169 s⁻¹
- koff (4E11): 0.000126 s⁻¹
- koff (12A4): 0.000295 s⁻¹
- koff (124F7): 0.000382 s⁻¹
- koff (12G7): 0.000242 s⁻¹
- koff (124D11 [8]): 0.000259 s⁻¹
- koff (12C10): 0.000289 s⁻¹
- koff (4D2): 0.000111 s⁻¹
- koff (124D4 [9]): 0.000348 s⁻¹
- koff (124H1): 0.000158 s⁻¹
- koff (124C5): 0.000357 s⁻¹
- koff (4E3): 0.000164 s⁻¹
- koff (124H5 [10]): 0.000246 s⁻¹
- koff (124B5 [11]): 0.00022 s⁻¹
- koff (124H2 [12]): 0.000116 s⁻¹
B2: R&D hIL23 (ligand)
chain 1: RAVPGGSSPAWTQCQQLSQKLCTLAWSAHPLVGHMDLREEGDEETTNDVPHIQCGDGCDPQGLRDNSQFCLQRIHQGLIFYEKLLGSDIFTGEPSLLPDSPVGQLHASLLGLSQLLQPEGHHWETQQIPSLSPSQPWQRLLLRFKILRSLQAFVAVAARVFAHGAATLSP
chain 2: IWELKKDVYVVELDWYPDAPGEMVVLTCDTPEEDGITWTLDQSSEVLGSGKTLTIQVKEFGDAGQYTCHKGGEVLSHSLLLLHKKEDGIWSTDILKDQKEPKNKTFLRCEAKNYSGRFTCWWLTTISTDLTFSVKSSRGSSDPQGVTCGAATLSAERVRGDNKEYEYSVECQEDSACPAAEESLPIEVMVDAVHKLKYENYTSSFFIRDIIKPDPPKNLQLKPLKNSRQVEVSWEYPDTWSTPHSYFSLTFCVQVQGKSKREKKDRVFTDKTSATVICRKNASISVRAQDRYYSSSWSEWASVPCS

- koff (121C1): 0.0371 s⁻¹
- koff (80C10 [13]): 0.000578 s⁻¹
- koff (3E1): 0.00956 s⁻¹
- koff (3A11): 0.00636 s⁻¹
- koff (3D4): 0.00714 s⁻¹
- koff (3G9): 0.00768 s⁻¹
- koff (3H5): 0.00375 s⁻¹
- koff (121C1 = 84D3): 0.0371 s⁻¹
- koff (80C10 [14]): 0.000578 s⁻¹
- koff (3A10): 0.00353 s⁻¹
- koff (3C7): 0.0119 s⁻¹
- koff (3A7): 0.00588 s⁻¹
- koff (1G8): 0.000779 s⁻¹
- koff (4F3): 0.00255 s⁻¹
B3: hIL12 (ligand)
chain 1: RNLPVATPDPGMFPCLHHSQNLLRAVSNMLQKARQTLEFYPCTSEEIDHEDITKDKTSTVEACLPLELTKNESCLNSRETSFITNGSCLASRKTSFMMALCLSSIYEDLKMYQVEFKTMNAKLLMDPKRQIFLDQNMLAVIDELMQALNFNSETVPQKSSLEEPDFYKTKIKLCILLHAFRIRAVTIDRVMSYLNAS
chain 2: IWELKKDVYVVELDWYPDAPGEMVVLTCDTPEEDGITWTLDQSSEVLGSGKTLTIQVKEFGDAGQYTCHKGGEVLSHSLLLLHKKEDGIWSTDILKDQKEPKNKTFLRCEAKNYSGRFTCWWLTTISTDLTFSVKSSRGSSDPQGVTCGAATLSAERVRGDNKEYEYSVECQEDSACPAAEESLPIEVMVDAVHKLKYENYTSSFFIRDIIKPDPPKNLQLKPLKNSRQVEVSWEYPDTWSTPHSYFSLTFCVQVQGKSKREKKDRVFTDKTSATVICRKNASISVRAQDRYYSSSWSEWASVPCS
